Tested on: Escherichia coli TOP10
Test: shrunken log2 fold change of peptide-encoding DNA abundance (4.5 h post-induction vs induction); higher = less antimicrobial activity (less host growth inhibition)
Settings: time post-induction: 4.5 h; library: site-saturation at positions 5, 18, 19, 20
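Further: peptides expressed intracellularly from a pBAD plasmid library in pooled LB shake-flask culture, induced with 0.3% L-arabinose, DNA abundance read by NGS, three biological replicates, DESeq2 with apeglm shrinkage.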

Row | Sequence | shrunken log2 fold change
1 | RRIRERPPRLPRPRPRPTWRPRP | 0.268
2 | RRIRERPPRLPRPRPRPTYDPRP | -0.528
3 | RRIRERPPRLPRPRPRPTYIPRP | -1.02
4 | RRIRERPPRLPRPRPRPTYQPRP | -0.136
5 | RRIRERPPRLPRPRPRPTYRPRP | -0.0372
6 | RRIRERPPRLPRPRPRPVAVPRP | -0.0937
7 | RRIRERPPRLPRPRPRPVCSPRP | -0.239
8 | RRIRERPPRLPRPRPRPVDHPRP | -0.195
9 | RRIRERPPRLPRPRPRPVFAPRP | 0.181
10 | RRIRERPPRLPRPRPRPVFNPRP | -0.329
11 | RRIRERPPRLPRPRPRPVGKPRP | -0.309
12 | RRIRERPPRLPRPRPRPVGPPRP | -0.0231
13 | RRIRERPPRLPRPRPRPVHHPRP | -0.954
14 | RRIRERPPRLPRPRPRPVHTPRP | -0.00346
15 | RRIRERPPRLPRPRPRPVIAPRP | -0.205
16 | RRIRERPPRLPRPRPRPVIGPRP | -0.108
17 | RRIRERPPRLPRPRPRPVISPRP | -0.145
18 | RRIRERPPRLPRPRPRPVKIPRP | -0.181
19 | RRIRERPPRLPRPRPRPVKRPRP | 0.025
20 | RRIRERPPRLPRPRPRPVKTPRP | 0.0285
21 | RRIRERPPRLPRPRPRPVKVPRP | -0.205
22 | RRIRERPPRLPRPRPRPVLPPRP | -0.0942
23 | RRIRERPPRLPRPRPRPVMQPRP | 0.095
24 | RRIRERPPRLPRPRPRPVNMPRP | -0.139
25 | RRIRERPPRLPRPRPRPVPYPRP | -0.132

Row | Sequence | shrunken log2 fold change
26 | RRIRERPPRLPRPRPRPVSAPRP | 0.148
27 | RRIRERPPRLPRPRPRPVTIPRP | -0.233
28 | RRIRERPPRLPRPRPRPVWKPRP | 0.00515
29 | RRIRERPPRLPRPRPRPVYAPRP | -0.288
30 | RRIRERPPRLPRPRPRPVYIPRP | -0.0234
31 | RRIRERPPRLPRPRPRPWAKPRP | -0.015
32 | RRIRERPPRLPRPRPRPWAQPRP | -0.0813
33 | RRIRERPPRLPRPRPRPWAVPRP | -0.0984
34 | RRIRERPPRLPRPRPRPWCAPRP | -0.158
35 | RRIRERPPRLPRPRPRPWDFPRP | 0.0275
36 | RRIRERPPRLPRPRPRPWDGPRP | 0.421
37 | RRIRERPPRLPRPRPRPWDPPRP | 0.173
38 | RRIRERPPRLPRPRPRPWEAPRP | 0.74
39 | RRIRERPPRLPRPRPRPWGQPRP | 0.115
40 | RRIRERPPRLPRPRPRPWHIPRP | -0.169
41 | RRIRERPPRLPRPRPRPWHNPRP | -0.344
42 | RRIRERPPRLPRPRPRPWIAPRP | -0.0555
43 | RRIRERPPRLPRPRPRPWIYPRP | 0.013
44 | RRIRERPPRLPRPRPRPWKEPRP | 0.0039
45 | RRIRERPPRLPRPRPRPWNSPRP | 0.0019
46 | RRIRERPPRLPRPRPRPWNWPRP | -0.131
47 | RRIRERPPRLPRPRPRPWPDPRP | -0.0169
48 | RRIRERPPRLPRPRPRPWQAPRP | 0.00281
49 | RRIRERPPRLPRPRPRPWRFPRP | -0.117
50 | RRIRERPPRLPRPRPRPWRGPRP | 0.166

Row | Sequence | shrunken log2 fold change
51 | RRIRERPPRLPRPRPRPWVYPRP | -0.157
52 | RRIRERPPRLPRPRPRPWWHPRP | -0.523
53 | RRIRERPPRLPRPRPRPWWPPRP | -0.155
54 | RRIRERPPRLPRPRPRPWYGPRP | -1.02
55 | RRIRERPPRLPRPRPRPYDHPRP | -0.397
56 | RRIRERPPRLPRPRPRPYFIPRP | -1.17
57 | RRIRERPPRLPRPRPRPYGWPRP | -0.135
58 | RRIRERPPRLPRPRPRPYHFPRP | -0.177
59 | RRIRERPPRLPRPRPRPYHKPRP | -0.804
60 | RRIRERPPRLPRPRPRPYHPPRP | -0.248
61 | RRIRERPPRLPRPRPRPYIDPRP | -1.51
62 | RRIRERPPRLPRPRPRPYLAPRP | -0.225
63 | RRIRERPPRLPRPRPRPYLCPRP | -0.554
64 | RRIRERPPRLPRPRPRPYLEPRP | -0.271
65 | RRIRERPPRLPRPRPRPYLNPRP | -0.326
66 | RRIRERPPRLPRPRPRPYMMPRP | -0.259
67 | RRIRERPPRLPRPRPRPYPNPRP | -1.19
68 | RRIRERPPRLPRPRPRPYPSPRP | -0.967
69 | RRIRERPPRLPRPRPRPYQRPRP | -0.876
70 | RRIRERPPRLPRPRPRPYSNPRP | -0.905
71 | RRIRERPPRLPRPRPRPYSWPRP | -0.486
72 | RRIRERPPRLPRPRPRPYTAPRP | -0.662
73 | RRIRERPPRLPRPRPRPYWHPRP | -0.168
74 | RRIRERPPRLPRPRPRPYYHPRP | -1.58
75 | RRIRERPPRLPRPRPRPYYWPRP | -0.192

Row | Sequence | shrunken log2 fold change
76 | RRIRFRPPRLPRPRPRPAAAPRP | 0.551
77 | RRIRFRPPRLPRPRPRPAAFPRP | -0.0126
78 | RRIRFRPPRLPRPRPRPAAMPRP | 1.58
79 | RRIRFRPPRLPRPRPRPAANPRP | 0.22
80 | RRIRFRPPRLPRPRPRPACYPRP | -0.066
81 | RRIRFRPPRLPRPRPRPADLPRP | -0.294
82 | RRIRFRPPRLPRPRPRPADVPRP | 0.258
83 | RRIRFRPPRLPRPRPRPAGNPRP | 0.135
84 | RRIRFRPPRLPRPRPRPAGRPRP | 0.294
85 | RRIRFRPPRLPRPRPRPAHLPRP | -0.0824
86 | RRIRFRPPRLPRPRPRPAHRPRP | 0.418
87 | RRIRFRPPRLPRPRPRPAKKPRP | 0.188
88 | RRIRFRPPRLPRPRPRPALCPRP | -0.088
89 | RRIRFRPPRLPRPRPRPALHPRP | -0.0349
90 | RRIRFRPPRLPRPRPRPALRPRP | 0.276
91 | RRIRFRPPRLPRPRPRPAMEPRP | 0.0126
92 | RRIRFRPPRLPRPRPRPAMIPRP | -0.397
93 | RRIRFRPPRLPRPRPRPANRPRP | -0.0406
94 | RRIRFRPPRLPRPRPRPASDPRP | -0.32
95 | RRIRFRPPRLPRPRPRPASGPRP | 0.206
96 | RRIRFRPPRLPRPRPRPASSPRP | -0.204
97 | RRIRFRPPRLPRPRPRPAVSPRP | -0.108
98 | RRIRFRPPRLPRPRPRPAWVPRP | 0.255
99 | RRIRFRPPRLPRPRPRPAYMPRP | -0.564
100 | RRIRFRPPRLPRPRPRPCFFPRP | -0.378

Row | Sequence | shrunken log2 fold change
101 | RRIRFRPPRLPRPRPRPCFRPRP | -0.45
102 | RRIRFRPPRLPRPRPRPCGDPRP | -0.01
103 | RRIRFRPPRLPRPRPRPCGVPRP | 0.0327
104 | RRIRFRPPRLPRPRPRPCHAPRP | -0.193
105 | RRIRFRPPRLPRPRPRPCHDPRP | 0.236
106 | RRIRFRPPRLPRPRPRPCIAPRP | -0.166
107 | RRIRFRPPRLPRPRPRPCISPRP | -0.068
108 | RRIRFRPPRLPRPRPRPCKHPRP | -0.0872
109 | RRIRFRPPRLPRPRPRPCKRPRP | 0.0187
110 | RRIRFRPPRLPRPRPRPCMCPRP | -0.544
111 | RRIRFRPPRLPRPRPRPCMHPRP | -0.111
112 | RRIRFRPPRLPRPRPRPCMSPRP | -0.0366
113 | RRIRFRPPRLPRPRPRPCNIPRP | 0.0928
114 | RRIRFRPPRLPRPRPRPCPGPRP | -0.151
115 | RRIRFRPPRLPRPRPRPCPKPRP | 0.036
116 | RRIRFRPPRLPRPRPRPCPLPRP | -0.183
117 | RRIRFRPPRLPRPRPRPCPQPRP | -0.697
118 | RRIRFRPPRLPRPRPRPCPYPRP | -0.261
119 | RRIRFRPPRLPRPRPRPCQKPRP | 0.033
120 | RRIRFRPPRLPRPRPRPCQRPRP | -0.124
121 | RRIRFRPPRLPRPRPRPCRNPRP | -0.0376
122 | RRIRFRPPRLPRPRPRPCRQPRP | 0.229
123 | RRIRFRPPRLPRPRPRPCWCPRP | -0.00345
124 | RRIRFRPPRLPRPRPRPCWHPRP | -0.259
125 | RRIRFRPPRLPRPRPRPCWWPRP | 0.696

Row | Sequence | shrunken log2 fold change
126 | RRIRFRPPRLPRPRPRPCYHPRP | -0.859
127 | RRIRFRPPRLPRPRPRPCYTPRP | -0.239
128 | RRIRFRPPRLPRPRPRPDARPRP | -0.0768
129 | RRIRFRPPRLPRPRPRPDCHPRP | -0.0405
130 | RRIRFRPPRLPRPRPRPDCIPRP | -0.349
131 | RRIRFRPPRLPRPRPRPDDDPRP | 0.114
132 | RRIRFRPPRLPRPRPRPDEHPRP | -0.0688
133 | RRIRFRPPRLPRPRPRPDGFPRP | 0.015
134 | RRIRFRPPRLPRPRPRPDGRPRP | 0.023
135 | RRIRFRPPRLPRPRPRPDGSPRP | -0.0167
136 | RRIRFRPPRLPRPRPRPDIPPRP | -0.634
137 | RRIRFRPPRLPRPRPRPDIYPRP | -0.0949
138 | RRIRFRPPRLPRPRPRPDKYPRP | -1.65
139 | RRIRFRPPRLPRPRPRPDLEPRP | -0.0811
140 | RRIRFRPPRLPRPRPRPDLQPRP | -0.0778
141 | RRIRFRPPRLPRPRPRPDPFPRP | -0.341
142 | RRIRFRPPRLPRPRPRPDQAPRP | -0.0167
143 | RRIRFRPPRLPRPRPRPDTHPRP | -0.618
144 | RRIRFRPPRLPRPRPRPDTMPRP | -0.0817
145 | RRIRFRPPRLPRPRPRPDVDPRP | 0.0167
146 | RRIRFRPPRLPRPRPRPDWLPRP | -0.0152
147 | RRIRFRPPRLPRPRPRPDWMPRP | -0.0628
148 | RRIRFRPPRLPRPRPRPDWPPRP | -0.0836
149 | RRIRFRPPRLPRPRPRPDYAPRP | -1.13
150 | RRIRFRPPRLPRPRPRPEADPRP | 0.24

Source: the supplement of paper PMC9112550, “Optimization of the antimicrobial peptide Bac7 by deep mutational scanning” (BMC Biology, 2022)
